# According to publication PMC10505908:
# Where a chain is given by its changes, count along the chain named.
# Assays:
# [1] = target: T1, HMCES SRAP E127A E127A (human) (UniProt Q96FZ2); test: covalent DPC formation, SDS-PAGE; details: N15 = AP site from dU by UDG
# T1 sequence: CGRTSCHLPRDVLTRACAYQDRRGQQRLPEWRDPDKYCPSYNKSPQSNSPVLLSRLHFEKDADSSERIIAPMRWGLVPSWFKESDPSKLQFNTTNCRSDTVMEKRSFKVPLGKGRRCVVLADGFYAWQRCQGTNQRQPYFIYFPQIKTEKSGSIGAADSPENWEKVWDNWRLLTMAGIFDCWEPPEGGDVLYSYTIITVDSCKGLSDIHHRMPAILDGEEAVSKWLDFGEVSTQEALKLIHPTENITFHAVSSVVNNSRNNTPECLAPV
# [2] = target: T2, HMCES SRAP R98E R98E (human) (UniProt Q96FZ2); test: covalent DPC formation, SDS-PAGE; details: N15 = AP site from dU by UDG
# T2 sequence: T1 sequence with R97E, A126E
# [3] = target: T3, HMCES SRAP E127A (human, UniProt Q96FZ2 2-270, E127A); test: fluorescence polarization
# T3 sequence: T1 sequence
Molecule,binding signal (fraction crosslinked) [1],binding signal (fraction crosslinked) [2],binding result [3]
CCCAAAAAAAAAAANAAAAAAAAAAAACCC / GGGTTTTTTTTTTTTATTTTTTTTTTTGGG [30mer AP site dsDNA],0,0,–
CCCAAAAAAAAAAATAAAAAAAAAAAACCC (ssDNA) [30mer dT-oligonucleotide],–,–,binds
